Test results from patent US20220098319A1 (SHANGHAI PHARMAEXPLORER, published 2022).
Changes are numbered by the printed parent chain. Read-outs that look alike come from different tables or passages of the source.

T1: human CD73 (full length, on transfected CHOK1 cells) (human, UniProt P21589 27-549)
T1 sequence (looked up): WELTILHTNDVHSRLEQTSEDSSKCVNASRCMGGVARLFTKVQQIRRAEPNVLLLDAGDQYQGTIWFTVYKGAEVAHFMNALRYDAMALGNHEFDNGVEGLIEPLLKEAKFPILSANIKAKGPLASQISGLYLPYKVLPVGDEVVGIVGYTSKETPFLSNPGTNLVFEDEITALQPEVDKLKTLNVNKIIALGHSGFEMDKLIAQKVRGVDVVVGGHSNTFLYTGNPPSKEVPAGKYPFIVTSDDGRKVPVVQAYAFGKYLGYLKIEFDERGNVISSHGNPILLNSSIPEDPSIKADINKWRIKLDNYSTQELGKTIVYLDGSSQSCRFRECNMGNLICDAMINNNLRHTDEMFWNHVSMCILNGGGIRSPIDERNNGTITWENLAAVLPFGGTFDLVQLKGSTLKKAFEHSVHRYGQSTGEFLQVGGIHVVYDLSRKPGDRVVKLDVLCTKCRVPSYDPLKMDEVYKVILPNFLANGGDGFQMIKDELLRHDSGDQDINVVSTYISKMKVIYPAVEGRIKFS

T2: cynomolgus monkey CD73 (on transfected CHOK1 cells) (cynomolgus monkey, UniProt A0A2K5V5U7 27-549)
T2 construct: whole, on cells; also called CHOK1-cCD73; CHOK1-CCD73
T2 sequence: T1 sequence (looked up) with M199T, T350A, V466I

T3: murine CD73 (on transfected CHOK1 cells) (mouse, UniProt Q61503 29-551)
T3 construct: whole, on cells; also called CHOK1-mCD73; mCD73
T3 sequence (looked up): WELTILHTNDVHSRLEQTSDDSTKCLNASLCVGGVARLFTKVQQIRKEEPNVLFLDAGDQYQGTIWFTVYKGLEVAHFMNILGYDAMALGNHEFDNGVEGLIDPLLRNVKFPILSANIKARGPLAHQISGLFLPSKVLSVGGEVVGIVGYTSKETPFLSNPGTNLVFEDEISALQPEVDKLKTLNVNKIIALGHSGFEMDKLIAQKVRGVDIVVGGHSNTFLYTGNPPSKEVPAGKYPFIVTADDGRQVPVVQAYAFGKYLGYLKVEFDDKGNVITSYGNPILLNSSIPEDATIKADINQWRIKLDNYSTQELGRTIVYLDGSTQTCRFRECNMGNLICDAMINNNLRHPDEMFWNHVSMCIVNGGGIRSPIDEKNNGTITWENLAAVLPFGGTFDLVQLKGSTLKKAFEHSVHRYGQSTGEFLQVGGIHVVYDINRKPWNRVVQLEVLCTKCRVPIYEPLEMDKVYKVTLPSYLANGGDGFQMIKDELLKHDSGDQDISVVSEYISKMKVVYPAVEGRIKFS

T4: His-tagged CD73 extracellular domain protein (hCD73 ECD-His) (human, UniProt P21589 27-547)
T4 construct: Expressed in CHO cells from pTT5-hCD73 ECD-His6, purified on nickel column; also called hCD73 ECD-His6; human CD73 ECD
T4 sequence: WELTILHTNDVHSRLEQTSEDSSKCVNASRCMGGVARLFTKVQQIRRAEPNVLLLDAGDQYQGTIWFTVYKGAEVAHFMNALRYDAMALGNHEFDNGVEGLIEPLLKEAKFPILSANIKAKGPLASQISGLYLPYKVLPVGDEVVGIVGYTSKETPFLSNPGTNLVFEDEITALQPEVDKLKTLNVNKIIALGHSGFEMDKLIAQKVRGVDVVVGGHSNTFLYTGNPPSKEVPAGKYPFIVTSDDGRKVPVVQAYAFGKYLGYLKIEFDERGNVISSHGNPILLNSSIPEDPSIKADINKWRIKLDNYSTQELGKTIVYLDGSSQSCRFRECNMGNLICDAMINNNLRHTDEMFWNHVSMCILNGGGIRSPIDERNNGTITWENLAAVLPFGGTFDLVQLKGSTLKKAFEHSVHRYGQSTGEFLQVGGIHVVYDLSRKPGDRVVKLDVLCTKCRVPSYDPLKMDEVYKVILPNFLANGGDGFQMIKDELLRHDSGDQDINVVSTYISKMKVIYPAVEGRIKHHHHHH

B1: mAb032 (clone 56F12H8), murine anti-CD73 antibody (antibody, V domains shown)
VH: EVQLVESGGDLVKPGGSLKLSCAASGFTFSTHGMSWVRQTPDKRLEWVAIISSDRSDIDYTDNVKGRFTISRDNGKNTLYLQMSSLKSEDTAIYHCARHRGYDGFYYAMDYWGQGTSVTVSS
VL: DILMTQSPSSLTVTAGEKVTMSCRSSQSLLNSGNQKNYLTWYQQRPGRPPKLLIYWASTRISGVPDRFAGSGSGTDFTLTISIVQAEDLAVYYCQNDYSYPLTFGSGTKLELR
notes: Purified from hybridoma supernatant
B2: mAb065 (clone 125A4E10), murine anti-CD73 antibody (antibody, V domains shown)
VH: EVQLQQSGPELVKPGASVKISCKASGYTFTDYYMNWVKQSHGKSLEWIGNINPNNGDTNYNQKFKGKATLTVDKSSSTASMELRSLTSEDSAVYYCANSGYYYFDYWGQGTTLTVSS
VL: DIVMTQSPSSLTVTAGEKVTMSCKSSQSLLNSGNQKNYLTWYQQKPGQPPKVLIYWASTRESGVPDRFTGSGSGTDFTLTISSVQAEDLAVYYCQNDYSYPPTFGGGTNLEIK
notes: as for B1
B3: mAb044 (clone 80H7D6), murine anti-CD73 antibody (antibody, V domains shown)
VH: EVKLVESGGGLVQPGGSLRLSCAASGFTFTDYYMSWVRQPPGKALEWLGFIRNKADGSTTEYSASVKGRFTISRDNSQSILYLQMNALRPEDSATYYCTRSPIYFDNWYFDVWGTGTTVTVSS
VL: DIVMSQSPSSLAVSVGEKVTMTCKSSQSLLYSNNQKNYLAWYQQKPGQSPKLLIYWASTRESGVPDRFTGSGSGTDFTLTLSSVKAEDLAVYYCQQYYSYPFTFGSGTKLEIK
notes: as for B1
B4: mab020xhIgG1TM (clone 24D6B4), mouse-human chimeric anti-CD73 antibody (antibody, V domains shown)
VH: EVQLQQSGPELVKPGASVKIPCKASGYTFTDYNMDWVKQRHGKSLEWIGDINPNNGGTVYNQKFKGKATLTVDKSSNTAYMELRSLTSEDTAVYYCARISGTGYWYFDVWGTGTTVTVSS
VL: DIQMTQSPASLSVSVGETVTITCRASENIYSNLAWYQQKQGKSPQLLVYGATNLADGVPSRFSGSDSGTQYSLKINSLQSEDFGSYYCQHFWGTPWTFGGGTKLEIK
notes: also called mAb020 chimeric antibody
B5: mAb030 (clone 42A5A7), murine anti-CD73 antibody (antibody, V domains shown)
VH: DIQLQESGPGLVKPSQSLSLTCSVTGYSITSRYYWNWIRQFPGNKLEWMGYITYDDNNNYNPSLKNRISITRDTSKNQFFLKLNSVTPEDTATYYCARGGWDPFLYWGQGTLVTVSA
VL: DIQMTQSPASLSASVGETVTITCRASDNIYSYLAWYQQKQGKSLQLLVDSAKNLGEGVPSRFSGSGSGTQFYLKINSLQPEDFGVYYCQHYYGTPFTFGGGTKLELK
notes: Purified from hybridoma supernatant; also called antibody 030

What was measured:
[1] = target: T1, human CD73 (full length, on transfected …); assay: cell-based or functional assay
[2] = target: T2, cynomolgus monkey CD73 (on transfected …); assay: FACS on CHOK1-cCD73 cells
[3] = target: T1, human CD73 (full length, on transfected …); assay: FACS on CHOK1-hCD73 cells
Procedure: The titration binding curve was produced by the following method:
The CHOK1 stable cell line transfected with human CD73 was expanded to a 75-90% confluence in a T-75 cell culture flask. The medium was aspirated, washed 1-2 times with PBS, and then treated with trypsin (Tryple express: Life technology) and cells were collected. The cells were washed with PBS buffer for 1-2 times. After counted, the cells were diluted with PBS to 1-2×10⁶ cells per ml, added with 1% fetal bovine serum (FBS) blocking solution, incubated on ice for 20-30 minutes, and then washed twice with HBSS by centrifugation. The collected cells were suspended with FACS buffer (PBS+2% FBS) to 2×10⁶ cells/ml, added to a 96-well FACS reaction plate at 100 microliters per well, and centrifuged at 300 g for 5 minutes to discard the supernatant. Anti-CD73 antibody was prepared with blocking solution to an initial concentration of 10 ug/ml and serially diluted at 8 points. 100 microliter per well of that antibody sample to be tested were added and incubated at 4° C. for 1-2 hours. […] The plate was washed 2-3 times with FACS buffer by centrifugation, added with 100 μl fixative solution (4% Paraformaldehyde) per well to suspend the cells. 5-10 minutes later, it was washed 1-2 times with FACS buffer by centrifugation. The cells were suspended with 100 microliters of FACS buffer, FACS (FACSCalibur, BD) was used for detection and the results were analyzed, as shown in FIG. 1 and Table 4.

[4] = target: T3, murine CD73 (on transfected CHOK1 cells); assay: FACS on CHOK1-mCD73 cells
[5] = target: T4, His-tagged CD73 extracellular domain …; assay: Octet BLI, antibody on AHC sensor, antigen 50-200 nM, 1:1 fit
Source text: Octet Red 96 was selected as the test instrument, and AHC biosensor was selected as the test sensor in this experiment. Anti-human IgG Fc antibody has been immobilized on the AHC sensor, which can be used to directly capture the 15 antibodies in this experiment. Then the sensor was immersed in the analysis sample (antigen). There were five steps in this experiment: 1, Baseline (120 s) 2, Loading (capture antibody) (300 s) 3, Baseline (120 s) 4, Association (binding antigen) (180 s) 5, Dissociation (antigen dissociation) (1200 s). After the test was completed, the regeneration buffer (Glycine PH1.5) and the neutralization buffer (1*PBS buffer) were alternately immersed for 5 seconds, and the sensor was regenerated by a total of five cycles. The maximum number of sensor regeneration times is 10. The running buffer in this experiment is the sample diluent (1*PBS buffer containing 0.02% Tween20 and 0.1% BSA), that is, the buffer used in the Baseline step, the Dissociation step, and the blank analyte sample. Four sensors are used at one running in this experiment.
Sample treatment: all the antibodies were diluted to the working concentration of 10 ug/ml with sample diluent (1*PBS buffer containing 0.02% Tween20 and 0.1% BSA), and the analyte samples (antigens) were diluted to three working concentrations: 200 nM, 100 nM and 50 nM.
For data analysis, Octet Data Analysis (version 7.0) was used to calculate the response signal value (the signal of the coupled analyte sample minus the signal of the blank analyte sample), and a 1:1 binding model was used to fit the data.

[6] = target: T3, murine CD73 (on transfected CHOK1 cells); assay: FACS on CHOK1-mCD73 cells; remark: listed apart in the source
[7] = target: T1, human CD73 (full length, on transfected …); assay: cell-based or functional assay; remark: listed apart in the source
[8] = target: T1, human CD73 (full length, on transfected …); assay: FACS on CHOK1-hCD73 cells
[9] = target: T2, cynomolgus monkey CD73 (on transfected …); assay: FACS on CHOK1-cCD73 cells; remark: listed apart in the source

Row | Binder | Enzyme activity blocking assay, IC50 [1] [nM] | Enzyme activity blocking assay, MAX % inhibition [1] [%] | EC50 [2] [nM] | MAX MFI [2] [MFI] | EC50 [3] [nM] | MAX MFI [3] [MFI] | binding result [4] | Kd [5] [nM] | koff [5] [s⁻¹] | kon [5] [M⁻¹ s⁻¹] | binding result [6] | Inhibition assay of enzyme activity, IC50 [7] [nM] | Inhibition assay of enzyme activity, MAX % inhibition [7] [%] | EC50 [8] [nM] | MAX MFI fold [8] [fold] | EC50 [9] [nM] | MAX MFI fold [9] [fold]
1 | B1 | 1.2 | 66.9 | 0.7 | 6050 | 2.6 | 7660 | no binding (tested: 10 ug/ml initial concentration) | – | – | – | – | – | – | – | – | – | –
2 | B2 | 0.3 | 56.4 | 2.5 | 3250 | 1.1 | 4650 | no binding (tested: 10 ug/ml initial concentration) | – | – | – | – | – | – | – | – | – | –
3 | B3 | 0.5 | 53.5 | 3.4 | 12300 | 1.6 | 7540 | no binding (tested: 10 ug/ml initial concentration) | – | – | – | – | – | – | – | – | – | –
4 | B4 | – | – | – | – | – | – | – | 0.0751 | 1.91e-05 | 255000 | no binding | 0.6 | 57.7 | 1.6 | 126 | 0.7 | 124
5 | B5 | 0.1 | 74.6 | 0.4 | 6310 | 0.9 | 6440 | no binding (tested: 10 ug/ml initial concentration) | – | – | – | – | – | – | – | – | – | –
